Assays:
[1] = molecular target: talin1 F0 domain (murine) (UniProt P26039)
GST-talin head = GST-talin head (mouse, UniProt P26039 1-433); test: pull-down
GST-talin head ΔF1 loop = GST-talin head ΔF1 loop (mouse, UniProt P26039 1-433, lacking residues 133–165); test: pull-down

Sequence of GMP.PNP-Rap1 (P62834 whole entry): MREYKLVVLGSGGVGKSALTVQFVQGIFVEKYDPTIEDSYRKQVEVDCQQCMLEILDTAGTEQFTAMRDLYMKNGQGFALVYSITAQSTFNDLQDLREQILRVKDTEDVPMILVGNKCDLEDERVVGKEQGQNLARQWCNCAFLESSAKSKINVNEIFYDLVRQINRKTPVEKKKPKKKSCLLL

| Molecule | Kd [1] [nM] | Kd (GST-talin head) [nM] | Kd (GST-talin head ΔF1 loop) [nM] |
| --- | --- | --- | --- |
| GMP.PNP-Rap1 (from UniProt P62834 1-184) (natural protein) | 140000 |  |  |
| KLLMIIHDRREFAKFEKEKMNAKWDTGENPIYKSAVTTVVNPKYEGK (domain or fragment, UniProt P05556-1 752-798, looked up) [β1A-integrin cytoplasmic tail (recombinant model protein)] |  | 124 ± 19 | 99 ± 20 |

From PMC2845276 (The EMBO Journal, 2010)
